Reference: the supplement of paper PMC12042874
± gives the uncertainty stated by the source.

Assay: amyloid nucleation score (Sup35N fusion, yeast selection) (log enrichment); library NNK3; higher = more nucleation; inactive = no reads after selection
Summary of the method: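 Plasmid inserts were Illumina-sequenced at input and output from psi-negative yeast expressing Sup35N fused to peptides of 20 random codons. The yeast were induced with 100 μM copper sulfate for 24 hours and grown 7 days at 30°C on medium lacking adenine and uracil, and sequences with under 100 input reads were excluded. Nucleation score is the DiMSum log enrichment of output over input reads, centred on the mode score of non-aggregating sequences.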

| Substance | amyloid nucleation score |
| --- | --- |
| GIMSCQ | 0.021 ± 0.88 |
| GWHQVTGFMYAIVFVTART | inactive |
| RYVRCNRMWIIDLDEHARGK | inactive |
| LCFNR | inactive |
| MHLVYQDILSYIAWSRVPLR | inactive |
| YYCEFGLFELKQTYCRLFWG | inactive |
| CVLSVEYGHNQEDAITMRCE | inactive |
| SMFGLRLIDG | inactive |
| SSITVF | inactive |
| DCVNWTWHTTDNLVVTYSYN | inactive |
| LISMYHHCSGHLVAQDTVSV | inactive |
| KLVQLYTLKFFGLNCSKSVI | inactive |
| PQMQAISSHVCLWG | inactive |
| GNALSAFPVGSFRKVVRCHG | inactive |
| IPSNTKSFSH | inactive |
| GYSTRYLSV | inactive |
| FSCDIMRPTKLGYSFDGLLL | inactive |
| PVVTVHAWHRFNMHL | inactive |
| YYPSEQTIGWPKLTFVDVVL | inactive |
| VYNCAMVCPNLIFWSFATGL | 2.55 ± 0.069 |
| SRKGDMPLDIDSWTCTVAFF | 1.13 ± 0.12 |
| LLIVNWVFRILVYRTTRGLR | inactive |
| RAHIPWKRCFV | -1.06 ± 1.9 |
| NIISNDLSEASIYNGFVCNR | inactive |

| Substance | amyloid nucleation score |
| --- | --- |
| CVGVF | inactive |
| YVDLAGLMLMADMA | inactive |
| VHTCGRKVWFEA | inactive |
| VLILCIKNTCLNQCASSCHR | 2.02 ± 0.068 |
| NYYNLYCLTVLQKRLQAGMQ | inactive |
| AFAMRMTCSGLVNICHFAWL | 0.287 ± 0.38 |
| VPIRECTMLSSMSWTGEPSY | inactive |
| FFLTHGCTCEDALKFGWVCY | inactive |
| HFLFSNQNIRSLNIVFNSRV | 2.2 ± 0.073 |
| FMRDD | inactive |
| CLVTGWISSILNWFLYWNWE | inactive |
| TVLSIIVFSYLLVCYHLVSV | inactive |
| LKSWDTIWVEDNYSLC | -0.148 ± 0.81 |
| VDQPQ | inactive |
| ARHVENSAKGFVGYLRRMHV | inactive |
| TFCSTCGDLWGSDFKCGFRV | inactive |
| EDLSVNNSAYVFPSLE | inactive |
| PFGVFHSSATTKRHFYMVGV | inactive |
| RDEYYRDRLGIVNLSRCSKS | inactive |
| FIGGVVTVTVYNNTVESGLK | 1.65 ± 0.13 |
| LYGTFVNSCQRFNLLDV | inactive |
| VYNVTITNYRNLPAM | 2.24 ± 0.088 |
| SYCDVFTGNNLHLVVSFFYS | 2.7 ± 0.053 |
| SFFLVSWLGALTVVIPVQ | inactive |

| Substance | amyloid nucleation score |
| --- | --- |
| NISMVTSEDYMRDLLIFSTG | inactive |
| FLRNIFDGRTWTFKDSNMSH | inactive |
| SRRVN | inactive |
| TTFATSCNMWYHRSILHS | inactive |
| FTRWIWFIVITSASCFKSFH | inactive |
| VNFCFFFKLLRGRSGYHLSW | 2.15 ± 0.09 |
| LVVSVRTYPTGCCPYKMLNQ | inactive |
| LFMEYWSVATCRNSGIVFIV | inactive |
| SGVCYFHARTRKSSSLRELV | 1.2 ± 0.12 |
| RVFGCKKGGSRLW | inactive |
| RSLFHSAFEFRFLGLTECTY | inactive |
| SPTRQLIKFKYSGHYIVHLR | inactive |
| FDVIS | inactive |
| IMEIMVNTWGNVTVRNSWRL | 1.23 ± 0.14 |
| CLSLKNERHQVFMSRIGNRA | inactive |
| VYLIKPMNDALSHHEPIKWD | inactive |
| TQGFLNKAGNVLSVIMDRIR | inactive |
| GGKMMFFKIRFFC | inactive |
| SCFGECCI | inactive |
| ESRSRLRNGTLFNCVIN | -0.081 ± 0.5 |
| GLYVVYFNILTTKGYQLIVM | inactive |
| SLASRHIGHLLISFLLGYGA | inactive |
| MVCLDWVPSNVMTLGS | inactive |
| FLCMSLATRMLTFRLFPTNL | inactive |

| Substance | amyloid nucleation score |
| --- | --- |
| TDHAWFWEQS | inactive |
| TNRIMNPVYDILWSGMGQPC | inactive |
| VSMRPMTSSRLKRFKYRYLY | inactive |
| AHRFITMSLERVSTYRGLYV | inactive |
| YAHLWKNSEAGWSGKYSILW | inactive |
| YLQFIDENS | inactive |
| YESRGEGVMPSTQLWMSRLG | inactive |
| DVCRTQSFGVAKTVIFCFLF | inactive |
| IPVAIMLS | inactive |
| WCFYFEQDMFHAPY | -0.106 ± 0.82 |
| CGCGWVLWPYKYRSDWLGGK | inactive |
| TCTLEFLNY | inactive |
| YCAFLTNPHVLDFSMNCCKL | 2.29 ± 0.059 |
| EKSICWSNFIAWITIWPKGR | inactive |
| LHHSVG | inactive |
| WGCYSWTMVRS | 1.33 ± 0.16 |
| SVRGIKVNLWRKEDLYASTQ | inactive |
| SLEHHQIIYVLARPACL | inactive |
| VPNEVFISYLV | inactive |
| ISPYIIVPY | inactive |
| RTYDVCQTRVCKRAKWEGDT | inactive |
| RLCHRWFLDRLTICY | inactive |
| NLVWFHIATEVIERNVGGGN | inactive |
| FTMSMYKGFRRCA | inactive |

| Substance | amyloid nucleation score |
| --- | --- |
| FPRVTVPLVFSSIQESTSSE | inactive |
| GRMWSACLGYMWGCFWREFW | inactive |
| WTSQVMRMDKTQVTGRDRVA | inactive |
| IKLFLIHTTPSFPNTREHDL | inactive |
| GSMSSCLVKRLNC | inactive |
| ACDTVEDGTSGGHCWVCGDG | inactive |
| LSSCMWDGPFFNCRVMKLSG | inactive |
| RTLSNFSGKVVLLI | inactive |
| RVKASSFQISMMTDALKFWC | inactive |
| LAIYTVRSQFKVMCGVQSIR | 0.85 ± 0.16 |
| FVTYCVRQETV | 0.578 ± 0.15 |
| HVIFFYILAFYNHSMGRTAV | inactive |
| LLHVVFNTFLYRLEPEYTSK | inactive |
| LVALVRECT | inactive |
| VMQHNVGLFNDHKYDSCRAC | inactive |
| SGTNNIVLLGHFVDFLEGVL | inactive |
| CNCVAKDKVMLHVSRRRADF | 0.201 ± 0.72 |
| WLSNREVFKMYIRLVQLAWL | inactive |
| VSVNMFLYISVNYKELGCEY | 1.93 ± 0.056 |
| SASRKNNQDVCGNCAVVGEF | inactive |
